Like-named read-outs stand apart in the source and are kept apart here.
What was measured:
Assay in all cases: cell-based or functional assay
[1] = biological target: SARS-CoV-2 spike (S) protein, Omicron variant BA.4/5 (SARS-CoV-2) (UniProt P0DTC2)
[2] = biological target: SARS-CoV-2 spike (S) protein, Omicron variant BA.2 (SARS-CoV-2) (UniProt P0DTC2)
[3] = biological target: SARS-CoV-2 spike protein, Alpha variant (B.1.1.7) (SARS-CoV-2)
[4] = biological target: SARS-CoV-2 spike protein, Beta variant 1 (B.1.351.v1) (SARS-CoV-2)
[5] = biological target: SARS-CoV-2 spike (S) protein, C.1.2 variant (SARS-CoV-2) (UniProt P0DTC2)
[6] = biological target: SARS-CoV-2 spike protein, Omicron sublineage BA.1.1 (R346K) (SARS-CoV-2) (UniProt P0DTC2)
[7] = biological target: SARS-CoV-2 spike (S) protein, Lambda variant (C.37) (SARS-CoV-2) (UniProt P0DTC2)
[8] = biological target: SARS-CoV-2 spike protein, Omicron variant (B.1.1.529) (SARS-CoV-2) (UniProt P0DTC2)
[9] = biological target: SARS-CoV-2 spike protein, Delta variant (B.1.617.2) (SARS-CoV-2)
[10] = biological target: SARS-CoV-2 spike (S) protein, Omicron variant BA1.1.529 (SARS-CoV-2) (UniProt P0DTC2)
[11] = biological target: SARS-CoV-2 spike (S) protein, Omicron variant BA.1 (SARS-CoV-2) (UniProt P0DTC2)
[12] = biological target: SARS-CoV-2 spike (S) protein, Omicron variant BA.2.12.1 (SARS-CoV-2) (UniProt P0DTC2)
[13] = biological target: SARS-CoV-2 spike (S) protein, Iota variant (B.1.526) (SARS-CoV-2) (UniProt P0DTC2)
[14] = biological target: SARS-CoV-2 spike protein, Gamma variant (P.1) (SARS-CoV-2)
[15] = biological target: SARS-CoV-2 spike (S) protein, Mu variant (B.1.621) (SARS-CoV-2) (UniProt P0DTC2)
[16] = biological target: SARS-CoV-2 spike (S) protein, Alpha variant (B.1.1.7) (SARS-CoV-2) (UniProt P0DTC2)
[17] = biological target: SARS-CoV-2 spike protein, Omicron sublineage BA.4.7 (R346S, F486V) (SARS-CoV-2) (UniProt P0DTC2)
[18] = biological target: SARS-CoV-2 spike protein, Omicron sublineage BA.4.6 (R346T, F486V) (SARS-CoV-2) (UniProt P0DTC2)
[19] = biological target: SARS-CoV-2 spike protein, Omicron sublineage BA.1.1 (R346K) (SARS-CoV-2) (UniProt P0DTC2); remark: listed apart in the source
[20] = biological target: SARS-CoV-2 spike protein, Omicron sublineage BQ.1.1 (R346T, K444T, F486V) (SARS-CoV-2) (UniProt P0DTC2)
[21] = biological target: SARS-CoV-2 spike protein, Omicron sublineage BF.7 (R346T, F486V) (SARS-CoV-2) (UniProt P0DTC2)
[22] = biological target: SARS-CoV-2 Omicron BA.4.6 spike protein (R346T, F486V) (SARS-CoV-2) (UniProt P0DTC2)

Substance	pseudovirus neutralization IC50 (nM (inferred)) [1]	pseudovirus neutralization IC80 (nM (inferred)) [1]	pseudovirus neutralization IC50 (nM (inferred)) [2]	pseudovirus neutralization IC80 (nM (inferred)) [2]	IC50, pseudovirus neutralization [3]	IC80, pseudovirus neutralization [3]	IC50, pseudovirus neutralization [4]	IC80, pseudovirus neutralization [4]	pseudovirus neutralization IC50 (nM (inferred)) [5]	IC50, pseudovirus neutralization [6]	IC80, pseudovirus neutralization [6]	pseudovirus neutralization IC50 (nM (inferred)) [7]	pseudovirus neutralization IC80 (nM (inferred)) [7]	IC50, pseudovirus neutralization [8]	IC80, pseudovirus neutralization [8]	IC50, pseudovirus neutralization [9]	IC80, pseudovirus neutralization [9]	pseudovirus neutralization IC50 (nM (inferred)) [10]	pseudovirus neutralization IC80 (nM (inferred)) [10]	pseudovirus neutralization IC50 (nM (inferred)) [11]	other results
B1-182.1 (antibody)	> 66.7	> 66.7	2.12	8.5	0.0262 nM	0.0844 nM	0.0357 nM	0.139 nM	0.0549	213 nM	1300 nM	0.0049	0.015	401 nM	1020 nM	0.0099 nM	0.0254 nM	2.55	6.47	1.03	pseudovirus neutralization IC80 (nM (inferred)) [5]: 0.11; pseudovirus neutralization IC80 (nM (inferred)) [11]: 4.44; pseudovirus neutralization IC50 (nM (inferred)) [12]: 0.739; pseudovirus neutralization IC80 (nM (inferred)) [12]: 5.92; pseudovirus neutralization IC50 (nM (inferred)) [13]: 0.0639; pseudovirus neutralization IC80 (nM (inferred)) [13]: 0.183; IC50, pseudovirus neutralization [14]: 0.0182 nM; IC80, pseudovirus neutralization [14]: 0.0429 nM; pseudovirus neutralization IC50 (nM (inferred)) [15]: 0.0695; pseudovirus neutralization IC80 (nM (inferred)) [15]: 0.219
LY-CoV555 (antibody)																					pseudovirus neutralization IC50 [2]: > 67 nM; pseudovirus neutralization IC80 [2]: > 67 nM; pseudovirus neutralization IC50 [16]: 0.0145 nM; pseudovirus neutralization IC80 [16]: 0.0361 nM; pseudovirus neutralization IC50 [11]: > 67 nM; pseudovirus neutralization IC80 [11]: > 67 nM
bebtelovimab (antibody)										26.4 nM	65.1 nM			0.32 nM	15.6 nM						IC50, pseudovirus neutralization [17]: 11.4 nM; IC80, pseudovirus neutralization [17]: 22.4 nM; IC50, pseudovirus neutralization [18]: 11.5 nM; IC80, pseudovirus neutralization [18]: 28.1 nM; IC50, pseudovirus neutralization [19]: 26.4 nM; IC80, pseudovirus neutralization [19]: 65.1 nM; IC50, pseudovirus neutralization [20]: > 10000 nM; IC80, pseudovirus neutralization [20]: > 10000 nM; IC50, pseudovirus neutralization [21]: 8.51 nM; IC80, pseudovirus neutralization [21]: 24.5 nM; IC80, pseudovirus neutralization [22]: 1 nM
A19-61.1 (antibody)	0.128	0.322	0.0607	0.17	0.175 nM	0.325 nM	0.0686 nM	0.113 nM	8.43			0.11	0.186			0.209 nM	0.292 nM	> 66.7	> 66.7	> 66.7	IC50, pseudovirus neutralization [22]: 540 nM; IC80, pseudovirus neutralization [22]: 2170 nM; pseudovirus neutralization IC80 (nM (inferred)) [11]: > 66.7; pseudovirus neutralization IC50 (nM (inferred)) [12]: 0.11; pseudovirus neutralization IC80 (nM (inferred)) [12]: 0.298; pseudovirus neutralization IC50 (nM (inferred)) [13]: 0.0418; pseudovirus neutralization IC80 (nM (inferred)) [13]: 0.0836; IC50, pseudovirus neutralization [14]: 0.135 nM; IC80, pseudovirus neutralization [14]: 0.288 nM; pseudovirus neutralization IC50 (nM (inferred)) [15]: 0.264; pseudovirus neutralization IC80 (nM (inferred)) [15]: 0.43
